For the assay, the target named is native Pf AMA-1 on P. falciparum parasites (strain not specified) (Plasmodium falciparum). The assay is described as follows: cell-based or functional assay.

rat monoclonal antibody 4G2 displayed an inhibition of invasion of 50 to 60%.

The values are drawn from patent US7910330.
